The target of this assay is full-length human αIIbβ3 on CHO K1 cells (human, UniProt P08514 32-1039; P05106 27-788). The assay can be described thus: cell-based or functional assay.

B1: AGDV tetrapeptide (peptide)
peptide: AGDV
For B1, the “EC50 of LIBS1 epitope exposure on CHO cells expressing αIIbβ3 (flow cytometry, 1 mM Mg2+ and 1 mM Ca2+)” value was 1.43 mM.

For the origin of these results see PMC4813479 (The Journal of Biological Chemistry, 2015).
